# From the DeepSol protein solubility set
# Assay: soluble on expression in E. coli; label from the status in PepcDB or PDB records
row,Sequence,soluble on expression in E. coli
1,MGSDKIHHHHHHMTCRRITFVPNFMIRDARVLRAGFVPREVEHRDAEVNHLSSVLEPITNGEPADTAIVTGPSGTGKTCISQFVTERLREEVLNVEATYVNCWRNYTRFRTLYQILDDFGETIDIHRQSTPHDELIDRLQQYDGPRTVIILDEVDQLEDPGIIYDLHSLPHFAVICIANKEEDLFSRVDDRLVSRLRSSEHVRMDKYHDEQLHDILAARVKGGLDQDVITTNQLDRIADAAAGDARLAIGILRTAASKADRESRERITDDILLNAAEDARAQIKQKNLDSLIPHQRLVYDVVREHGPLGPSEIYDHYKRKVDDPRTKRTIRTYLSKMTQYNVLEAEGTSRDREYSLVDSTAPSVTQ,not soluble
2,GPGSMKATIITPGETYRILAPASSLHKYLTDSYWCSAMEEVCEGKLDGVAVRYTGQQLVLLQFRPKQLSPAGYRYPISMSIPVEYLVPISTEESTEDHNICKHDTNYGTKESTFLGSGFAPLCVVCGRYNVPGMVLRHHGYKCPECVGHKSTRKLRMEGARRR,not soluble
3,GSMEPGPDGPAASGPAAIREGWFRETCSLWPGQALSLQVEQLLHHRRSRYQDILVFRSKTYGNVLVLDGVIQCTERDEFSYQEMIANLPLCSHPNPRKVLIIGGGDGGVLREVVKHPSVESVVQCEIDEDVIQVSKKFLPGMAIGYSSSKLTLHVGDGFEFMKQNQDAFDVIITDSSDPMGPAESLFKESYYQLMKTALKEDGVLCCQGECQWLHLDLIKEMRQFCQSLFPVVAYAYCTIPTYPSGQIGFMLCSKNPSTNFQEPVQPLTQQQVAQMQLKYYNSDVHRAAFVLPEFARKALNDVS,soluble
4,MTELEEIGININSIENTEQIISQLMDNYSDDVLHLVFSYVKNRTTAEDLTQEIFIKCYEKLDQFNNKSSIKTWLYRIAINHCKDYLGSWHYRKLNFSEKIWNYLPSKSKHVEEEIIAKDVANSLMSAVMDLPVKYREVVFLHYYEELSLANISKITGVNSNTLKTRLKHARELLKTKMKKEV,not soluble
5,MGSDKIHHHHHHMNFTQNEKLKQLSERSIVIGVDIASELHYARAFDWRGVELGKVFKFENSAEGFKNLYAWIERIKRQAQKDSIVVGAEPTGHYWFGLASYLKEQNIKLVLVNPFHVKRSKELDDNHPSKTDAKDPKTIAKLVIEGRYNEPYIPEGLYAELRIAVTCRVRIQKEMNSIKNRIQRWLKIYFPEHETVFGKFDATSSMLVLQVAPLPRDIERLGVEGINRIWRDNKLRAVGMKRAKSLYEAAQKSIGCTEGESCSRMEIQLLLQDYHTKTAQYQAVTETIDGLCRQIPEVAKLLEIKGVGLVTVAGFLSEVGDIKRFNSPKQIQKLAGLALRESSSGKHKGQTTISKRGRARLRAILFQAVMPLVAKNAEFAEIHNYYTTRTQNPLKKKQSLIALSCKLIRVFYAILTKGTDYDPKKLIMDIHRPVEYLAA,not soluble
6,AKGSTNHRALTGVIFEPFEEVKKELDLVPTVPQASLARQKYVDESESAVNEQINVEYNVSYVYHAMFAYFDRDNVALRGLAKFFKESSEEEREHAEKLMEYQNKRGGKVKLQSIVMPLSDFDHADKGDALHAMELALSLEKLTNEKLLNLHSVATKNGDVQLADFVETEYLGAQVEAIKRISEYVAQLRRVGKGHGVWHFDQMLLHEGGDAA,soluble
7,MGSDKIHHHHHHMVLSKFMPHNPKFAAKFAEAAQNAHATAQALVDLLENYTDVERKVQRVLDFEHEGDRITSEVTNLLAESFIVPFDREDILALNAELDDLVDDMEEAASKLSLYRIERPLPQMAQLARVVEQQCALLAQGMPLIEDGRMVDELRQLSQKIRALEDEGDRISDEVARHLYDGVTEVPQMIVAMRSGEILNLIENASDQAQRIARTVESILLKNA,not soluble
8,PDGPTQLRALNLTEGFAVLHWKPPQNPVDTYDIQVTAPGAPPLQAETPGSAVDYPLHDLVLHTNYTATVRGLRGPNLTSPASITFTTGLEAPRDLEAKEVTP,soluble
9,MNDIPVQHNKNRCPSHPGDLLAEIIPATGKTKLEIAQMLGISRQHLYAILRAKKPISPSVSARLGKLFGDGAAVWLRMQAAYDAWHAEHETDVSQIPTLHVV,not soluble
10,MGSDKIHHHHHHMIYLDQAASSFPKPKEVAEAMVAAVNEYGANPGRGGHRLATQARVTIDETRELLKTLFNAPSKKHVWFYQNATGALNQALFGFPFKEGDHVVSTALEHNSVRRPLEQLRERNGLVITYAQPDEEGIISPEKIAQACTDQTKAIVLSHGSNVTGAYLELEKIGEMAEAHGIVFIVDASQTAGVIDIDMKRDRISMLACAGHKGLLGPQGTGVLIVADDYGLTPLSYGGTGSYSELIDQPSQWPDRYESGTLNTPGIAGLKAGIEYVLDNGVAQIFAHEWALTERLLKGLGAQKVDVYGPPLPRKRLGVVSFRLSGFDSHEVALILDEHYQIAVRAGLHCAPMTHETLQTTDTGLIRVSVGPFNTEREVDQLLQAVMDIQQAFTS,not soluble
11,MSYSDYPSDIADYSSFDNMMADICNPSSSSSSNRKRQADPAPDNFAKIPAGMATQPLYFPIHYPVNSGWQSFDVNQVYNNHNMNQPGFGWVALPPPMPHNLQIPDQNSYKPRSGLPVPPPMAEFQDVNGIQQNPNEIFKNAPITSAMCTPESDISTSTNLTPDQDSAQLPLTEQELNEEKNFVVNIESPGKLAHYFLPNVESEQEPNEHIPYPYAKSLFPTFGVPVSSDGNVVAEVVDGRLPAVGTRSKYDITVDEIRRRCGAPEHMNQSALYCFFRKSKKREAINRVKQVLTVHNIPMRTMQRQRKVTCFSPFLEEEATALARDLDSISEEFLPINIIAQEMLEKLMSSGNNLDVCHRMLKNTTATITRVIKTLEVRQPKITGQEEKLKGNNLDLSYHNFSLITHGFGHPNSLSHYRSYLSIVERAVLLCEKIQNGQSLLSNEDVIPGQKPFERMSNEYFVEWQMNLYKKKLAKQMEEVEENKSQRGEHQQIHQHQLYQQHHTNTHPPMPLMPPSQMNLCPPITPIPPQNVYYY,not soluble
12,MGSDKIHHHHHHMNEAFLSLTPAQIRHRLHAAPELSGQETETARRVAGWLEQAGATRIVTGLGGHGVAGVFAGTLPGPRVMFRAELDGLPIDETAEIAWKSTCEHVAHSCGHDGHMAVLLGLAQRLAEQPPTHGETVLLFQPSEETGRGAREVVESSRFEEIAPDHVYALHNLPGKPLGEVSVREGAMTCASRGLIIRLNGLCAHAAHPEQGRNPALAMCRILQGLKRLPQQLPDDQGLVMVTLIHARLGEVAFGTSPGQAEVMATLRTEDDAMMRALAEASVALARAEAEEDDLGIEIDWCDVFQATRNHPAAVASIREAARSLNMPLTALPEAHRWSEDFGWLAAQGQGALLTLGAGERCLPLHNPGYDFPDDLLDTGIALFERLVRLHQSDV,not soluble
13,MGSSHHHHHHSSGLVPRGSHMISNKLANIPDSYFGKTMGRKIEHGPLPLINMAVGIPDGPTPQGIIDHFQKALTIPENQKYGAFHGKEAFKQAIVDFYQRQYNVTLDKEDEVCILYGTKNGLVAVPTCVINPGDYVLLPDPGYTDYLAGVLLADGKPVPLNLEPPHYLPDWSKVDSQIIDKTKLIYLTYPNNPTGSTATKEVFDEAIAKFKGTDTKIVHDFAYGAFGFDAKNPSILASENGKDVAIEIYSLSKGYNMSGFRVGFAVGNKDMIQALKKYQTHTNAGMFGALQDAAIYALNHYDDFLEEQSNVFKTRRDRFEAMLAKADLPFVHAKGGIYVWLETPPGYDSEQFEQFLVQEKSILVAPGKPFGENGNRYVRISLALDDQKLDEAAIRLTELAYLYE,soluble
14,GPHMADLFGDDIEEIPDTDFDFEGNLALFDKAAVFEEIDTYERR,soluble
15,MGDCDIEGKDGKQYESVLMVSIDQLLDSMKEIGSNCLNNEFNFFKRHICDANKEGMFLFRAARKLRQFLKMNSTGDFDLHLLKVSEGTTILLNCTGQVKGRKPAALGAAQPTKSLEENKSLKEQKKLNDLCFLKRLLQEIKTCWNKILMGTKEH,soluble
16,MAHHHHHHMARRPSRCYRFCKNKPYPKSRFCRGVPDPKIRNFDIGRRRATVDEFPVCIHVVSRELEQIASEALEAARIQANKYMVKRANKDVFHMRTRAHPFHVLRINKMLSCAGADRLQTGMRGAFGKPNGVCARVRIGQILLSMRTKEAYVPQAFEALRRAKMKFPGRQIIVMSKYWGFTNILRTEYEALRDAGKLEQRGTHCKLIAPKGKITMRNVMA,not soluble
17,NYAPAVAEAFYRGIPLVAVTADRPAEWIDQDEGQTIRQEGAMAGFVKSYCSLRAEFDTSASAWYANRRLNEVLNHALMPRRGPVHINMSFCEPLYGTSSGYSGKERAITFVRERQELPEEVWDMLVKRFLEAPRVMIVAGFYPPDEDVSAALQDICKFPHTVLFAESLSNIRTDTGICTADRVLAAAGEDESLYPELLISFGGSLISRMLKTFLRRAKPAEHWGIDERFPAPDTFCALTHHICTGASGFWKEFAGRLKDKAPESLSPEGISYAGSWQKIKRKADLLHRTFMADAGWSDLKAFEVILRHIPHDAALHAANSTPVRYLQLFEHAHYAGGEWSNRGTNGIEGATSTAMGFSE,not soluble
18,GPGSMLRLGQPTLTAMRCVPAASASATAVAPTTSYPSTSAALLANTRAIHGEVRHQNTDYDNTRIPWDFTTSSYEKIHNEILPKFPRGRRISATIPLLHLAQQQQGGYIPVTAMYKIAKICEVPPMHVFETVTFYSMFNRHPVGKYHIQFCRTTPCMLCGADELMERTMHYLNVRMHGTTSDGLITIGEMECLGACVNAPMLVVSDYSNPPNFSYDYMEDLTWESIKTLVENLRGGKPFKIGSQRLDRRYAEPAGGRTSLLFKEPPGPYCRDFDAEPDKKADAASPKK,not soluble
19,MAAASFAPFQDLANLLIPYTHAEKIDGSHDVSHLLRVWKNVCAIRDREGGDARVLMAATLLHDCVSVEKDSPFRAGASRLAAARARELLGDMGWDEESIASVAHAVEAHSFSAAITPVSLEAKILQDADRLDSLGMIGVARTFYVSGRMGKYLYEPNDPHASQRPYDDKRFAVDHFHTKLLHLADGFQTRTGTQMAKVRHDRLKRFLDELMEEIDASRPLEHHHHHH,not soluble
20,MGSDKIHHHHHHMTKKLTNQLIDVTSGRNFRELGGYETNSGKKIKMHKLLRTGNLADLSPFDKQFLTDYGVKYDVDFRSKEEVERQPDRVPDGVEYIYDPVFSEDLTNSSKSINDLNTQASDDADFGFNHMHYAYEDMIESESAQKAYRKFFDVLLKNDVEGESVIFHCTAGKDRTGFGALLILSALGVPFNTIKKDYLLTNITTKEFVESMVEHARQNGRNENVLQSIRDIQSVRAEYIDHAVKIINDDYGSIHNYLRDMMKLSSADIMKLRNIYLED,not soluble
21,MKFCSLCGATVVQRIPDGDNRLRYVCDACHTVHYQNPRIVAGSLPVWDGQVLLCRRAIAPRLGYWTLPAGFMENGETLAQAAARETEEEANARIGDLQLYTLFDLPHISQVYLFFRAELLDLDFSAGDESLEVRLFDEAEIPWSELAFPTIGRTLECYFSDRREGCFPVRNEAIAPMLASYKKD,not soluble
22,METMTELNTKEMKLDALLKDMQSVVIAFSGGVDSSLLLKKAIDILGVNYVKPVVVKSELFRNEEFELALKLGQSLGVEVLETEMSELQDANIVKNTPESWYYSKRLMYSQLENIKNKLGFNYVLDGMIMDDLDDFRPGLKARDDFGVRSVLQEAKLYKSEVRELSHQHDLPVWNKPALCSLASRIPYGEELSFTKVNKVNEAEKFILSLGINHVRVRYHHNIARIEVTEDQLNNLLKLKDSIILHLKELGFDYVTMDLEGYRTGSMNEIIDTKSTSFK,not soluble
